Target: the molecule itself
Test: native gel or EMSA; chemiluminescent EMSA; purified protein bound to the biotin-labelled AP1 probe (single CArG cassette) at room temperature; dimer band on the DNA probe

B1: AtSEP3, wild type, recombinant GST-tagged protein (natural protein, Arabidopsis thaliana, UniProt O22456 2-251, looked up)
chain: GRGRVELKRIENKINRQVTFAKRRNGLLKKAYELSVLCDAEVALIIFSNRGKLYEFCSSSSMLRTLERYQKCNYGAPEPNVPSREALAVELSSQQEYLKLKERYDALQRTQRNLLGEDLGPLSTKELESLERQLDSSLKQIRALRTQFMLDQLNDLQSKERMLTETNKTLRLRLADGYQMPLQLNPNQEEVDHYGRHHHQQQQHSQAFFQPLECEPILQIGYQGQQDGMGAGPSVNNYMLGWLPYDTNSI
notes: also called wild-type SEP3 protein; source: E. coli BL-21 (DE3), pGEX-4T-3, purified (GST-tagged protein purification kit)
B1: binds.

From paper PMC11955279, “The Molecular Mechanism of Interaction Between [sequence]3 and APETALA1 in Arabidopsis thaliana” (Plant Direct, 2025)
